Peptide exchange data for 67 substances are collected here from patent US20220289816A1, “IMMUNOTHERAPY WITH B*07 RESTRICTED PEPTIDES AND COMBINATION OF PEPTIDES AGAINST CANCERS AND RELATED METHODS” (Immatics Biotechnologies GmbH, priority 2018, published 2022).

For this test, the target named is HLA-B*07 (Homo sapiens, UniProt P01889). The test is described as follows: MHC binding assay (UV-ligand exchange, ELISA of stabilized MHC complexes). The following applies: peptide exchange yield on HLA-B*07, UV-ligand exchange. An excerpt: Candidate peptides for T cell based therapies according to the present invention were further tested for their MHC binding capacity (affinity). The individual peptide-MHC complexes were produced by UV-ligand exchange, where a UV-sensitive peptide is cleaved upon UV-irradiation and exchanged with the peptide of interest as analyzed. Only peptide candidates that can effectively bind and stabilize the peptide-receptive MHC molecules prevent dissociation of the MHC complexes. To determine the yield of the exchange reaction, an ELISA was performed based on the detection of the light chain (β2m) of stabilized MHC complexes. The assay was performed as generally described in Rodenko et al. (Rodenko et al., 2006)
96 well MAXISorp plates (NUNC) were coated over night with 2 ug/ml streptavidin in PBS at room temperature, washed 4× and blocked for 1 h at 37° C. in 2% BSA containing blocking buffer. […] Peptide-MHC monomers of the UV-exchange reaction were diluted 100-fold in blocking buffer. Samples were incubated for 1 h at 37° C., washed four times, incubated with 2 ug/ml HRP conjugated anti-[…] for 1 h at 37° C., washed again and detected with TMB solution that is stopped with […]. Absorption was measured at 450 nm. Candidate peptides that show a high exchange yield (preferably higher than 50%, most preferred higher than 75%) are generally preferred for a generation and production of antibodies or fragments thereof, and/or T cell receptors or fragments thereof, as they show sufficient avidity to the MHC molecules and prevent dissociation of the MHC complexes.
Regarding “165 (RPSKEMQVTI; listed as Homo sapiens) [compound 165]”, the Peptide exchange result is reported as “++++ (>75% = ++++)”. The entry for “167 (NVNPARKGL; listed as Homo sapiens) [compound 167]” is “++++ (>75% = ++++)”; for “168 (SPSGQRDVSL; listed as Homo sapiens) [compound 168]” it is “++++ (>75% = ++++)”. As to “169 (RPFSVSSISQL; listed as Homo sapiens) [compound 169]”, the Peptide exchange result is listed as “++++ (>75% = ++++)”.

As to “170 (APEGKRLGF; listed as Homo sapiens) [compound 170]”, the Peptide exchange result is “++++ (>75% = ++++)”. Then “171 (LPLGGHKSL; listed as Homo sapiens) [compound 171]”, with “+++ (>50 = +++)”; and “172 (SAQSLHPVL; listed as Homo sapiens) [compound 172]”, with “+++ (>50 = +++)”. For “173 (VIINNPISL; listed as Homo sapiens) [compound 173]”, the Peptide exchange entry is “++ (>20% = ++)”. Then “174 (IPVTSSVTL; listed as Homo sapiens) [compound 174]”, with “++++ (>75% = ++++)”; and “176 (QPLDICHSF; listed as Homo sapiens) [compound 176]”, with “++++ (>75% = ++++)”; and “177 (VWEPQGSSRSL; listed as Homo sapiens) [compound 177]”, with “+++ (>50 = +++)”. Then “178 (VPYYPRANL; listed as Homo sapiens) [compound 178]”, with “+++ (>50 = +++)”; and “180 (RLRDYISSL; listed as Homo sapiens) [compound 180]”, with “++++ (>75% = ++++)”. The entry for “181 (LPVSPARAL; listed as Homo sapiens) [compound 181]” is “+++ (>50 = +++)”; for “182 (RPLPVSPARAL; listed as Homo sapiens) [compound 182]” it is “+++ (>50 = +++)”; for “183 (VPRRPARAL; listed as Homo sapiens) [compound 183]” it is “+++ (>50 = +++)”. For “184 (KIIASGNHL; listed as Homo sapiens) [compound 184]”, the Peptide exchange entry is “++ (>20% = ++)”. The entry for “185 (RPVLTASSF; listed as Homo sapiens) [compound 185]” is “++++ (>75% = ++++)”. Then “186 (VPLPAGGGTVLT; listed as Homo sapiens) [compound 186]”, with “+ (>10% = +)”.

Regarding “187 (APPPPPPPF; listed as Homo sapiens) [compound 187]”, the Peptide exchange entry is listed as “++++ (>75% = ++++)”. Then “188 (HAAASFETL; listed as Homo sapiens) [compound 188]”, with “++ (>20% = ++)”; and “189 (QPQCSTHIL; listed as Homo sapiens) [compound 189]”, with “++++ (>75% = ++++)”; and “190 (RLAHVRARL; listed as Homo sapiens) [compound 190]”, with “+++ (>50 = +++)”. Then “191 (KPKAVKPKAA; listed as Homo sapiens) [compound 191]”, with “++++ (>75% = ++++)”; and “192 (IPFADVKSF; listed as Homo sapiens) [compound 192]”, with “++ (>20% = ++)”. The entry for “193 (LPALKEEAF; listed as Homo sapiens) [compound 193]” is “++++ (>75% = ++++)”; for “194 (HPNKIKASL; listed as Homo sapiens) [compound 194]” it is “+++ (>50 = +++)”. With “195 (NPIFGRKEL; listed as Homo sapiens) [compound 195]”, the Peptide exchange result is listed as “+++ (>50 = +++)”. As for “196 (RPSGTAGAAL; listed as Homo sapiens) [compound 196]”, the Peptide exchange result is listed as “+++ (>50 = +++)”. The entry for “197 (RPSGTAGAALLA; listed as Homo sapiens) [compound 197]” is “++ (>20% = ++)”; for “198 (LPSPAHAFRAL; listed as Homo sapiens) [compound 198]” it is “+++ (>50 = +++)”; for “199 (SPFWIHQA; listed as Homo sapiens) [compound 199]” it is “++ (>20% = ++)”. In the case of “201 (LPIARVLTV; listed as Homo sapiens) [compound 201]”, the Peptide exchange entry is reported as “++++ (>75% = ++++)”. Then “202 (SPSREASAL; listed as Homo sapiens) [compound 202]”, with “+++ (>50 = +++)”; and “203 (KPRGPIDI; listed as Homo sapiens) [compound 203]”, with “++ (>20% = ++)”. “204 (FPYSGDKILV; listed as Homo sapiens) [compound 204]”: the Peptide exchange result was “+++ (>50 = +++)”. For the substance “206 (TPRIGPKVSL; listed as Homo sapiens) [compound 206]”, the Peptide exchange entry is given as “+++ (>50 = +++)”. “207 (VPSDITTAF; listed as Homo sapiens) [compound 207]”: the Peptide exchange result is listed as “+++ (>50 = +++)”. In the case of “208 (RNRQVATAL; listed as Homo sapiens) [compound 208]”, the Peptide exchange result is on record as “+++ (>50 = +++)”. Take “209 (KIEQIRAVL; listed as Homo sapiens) [compound 209]”: the Peptide exchange result is “+++ (>50 = +++)”. Then “210 (IPENRVVSY; listed as Homo sapiens) [compound 210]”, with “++ (>20% = ++)”; and “211 (IPDTIASVL; listed as Homo sapiens) [compound 211]”, with “+++ (>50 = +++)”; and “212 (VPYAAQAAL; listed as Homo sapiens) [compound 212]”, with “++++ (>75% = ++++)”. In the case of “213 (RPYQDAPVA; listed as Homo sapiens) [compound 213]”, the Peptide exchange entry was “++++ (>75% = ++++)”. The entry for “214 (LPLKFFPII; listed as Homo sapiens) [compound 214]” is “+ (>10% = +)”.

Take “215 (IPVAIKEL; listed as Homo sapiens) [compound 215]”: the Peptide exchange entry is given as “++ (>20% = ++)”. Then “216 (LPWEQNEQV; listed as Homo sapiens) [compound 216]”, with “+++ (>50 = +++)”; and “217 (SPGDKRLAAYL; listed as Homo sapiens) [compound 217]”, with “+++ (>50 = +++)”. Consider “219 (VPHTGRYTCL; listed as Homo sapiens) [compound 219]”, for which the Peptide exchange entry was “+++ (>50 = +++)”. Then “220 (RPAPGPAPFV; listed as Homo sapiens) [compound 220]”, with “+++ (>50 = +++)”; and “221 (LPQRPNARL; listed as Homo sapiens) [compound 221]”, with “+++ (>50 = +++)”. As for “222 (MLKTTLTAF; listed as Homo sapiens) [compound 222]”, the Peptide exchange result is “+ (>10% = +)”. The entry for “223 (KAHVRIEL; listed as Homo sapiens) [compound 223]” is “++ (>20% = ++)”.

“224 (SPIIHSILL; listed as Homo sapiens) [compound 224]”: the Peptide exchange result is “++++ (>75% = ++++)”.

On to “225 (SPIIHSIL; listed as Homo sapiens) [compound 225]”, for which the Peptide exchange entry is “+++ (>50 = +++)”. Then “226 (APGGSSRSSL; listed as Homo sapiens) [compound 226]”, with “+++ (>50 = +++)”; and “227 (RPGTGQGGL; listed as Homo sapiens) [compound 227]”, with “+++ (>50 = +++)”; and “228 (RPTAASQSRAL; listed as Homo sapiens) [compound 228]”, with “+++ (>50 = +++)”. Then “229 (FPNAGPRHLL; listed as Homo sapiens) [compound 229]”, with “+++ (>50 = +++)”; and “230 (DVIDDIISL; listed as Homo sapiens) [compound 230]”, with “++++ (>75% = ++++)”; and “231 (SPITLQAL; listed as Homo sapiens) [compound 231]”, with “++++ (>75% = ++++)”. The entry for “232 (TAYPSLRLL; listed as Homo sapiens) [compound 232]” is “+++ (>50 = +++)”.

As to “233 (MAYDRFIAI; listed as Homo sapiens) [compound 233]”, the Peptide exchange result was “+++ (>50 = +++)”. As for “234 (HPRAPGEQQRL; listed as Homo sapiens) [compound 234]”, the Peptide exchange result is reported as “+++ (>50 = +++)”. As for “235 (AQNPAGTAL; listed as Homo sapiens) [compound 235]”, the Peptide exchange result is given as “+ (>10% = +)”.

Consider “236 (TPELKSSIL; listed as Homo sapiens) [compound 236]”, for which the Peptide exchange entry is recorded as “+++ (>50 = +++)”. The entry for “237 (LPRAGGAF; listed as Homo sapiens) [compound 237]” is “++++ (>75% = ++++)”.
